Experimental data as given in publication PMC11067984.

Biological target: CaV1.2 truncated at aa 1820, fused to YFP (CaV1.2^Δ1820-YFP) (UniProt P15381)

Q: For “Distal C-terminal domain of CaV1.2 fused to Renilla luciferase (DCtermD-RLuc) (domain or fragment)”, which CDI fraction of CaV1.2^Δ1820 at 0 mV, without versus with DCtermD overexpressed is on record?
A: 0.03
